Article PMC7782499, “Progerinin, an optimized progerin-lamin A binding inhibitor, ameliorates premature senescence phenotypes of Hutchinson-Gilford progeria syndrome” (Communications Biology, 2021)
“And” between values parts separate entries of the source, which are not always exact repeats. Equal entries are not always repeated.

What was measured:
[1] = Plasma protein binding, rat; type: in vitro ADME
Description: (§1) At pre-set time-points, blood concentration of JH4 was determined by LC-MS/MS analysis[22],[23]. Other chemicals were also tested using similar protocol. In vitro ADME studies (plasma protein binding, CYP inhibition, microsomal stability, plasma stability, and hERG inhibition) were performed by New Drug Development Center (Daegu, Korea) using standard protocols[24],[25].

[2] = Plasma protein binding, human; type: in vitro ADME
Description: as §1

HEK293 cells [3] = assay: GFP-tagged protein and H3K9me3 expression in transfected HEK293 cells; type: cell-based; settings: for GFP relative expression (ratio), Ave: average (Fig S1F); for Relative H3K9me3 expression, Ave: average (Fig S1G); for GFP relative expression (ratio): single replicates (Fig S1F); for Relative H3K9me3 expression: single replicates (Fig S1G); for GFP positive cells in total cells, Ave / GFP positive cells in total cells: transfected cells; for GFP positive cells in total cells, Ave / GFP relative expression in Western Blot, Ave: average (Fig S1D); for GFP positive cells in total cells / GFP relative expression in Western Blot: single replicates (Fig S1D);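 on Relative H3K9me3 expression, Ave: Western blot band quantification of H3K9me3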;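 on Relative H3K9me3 expression: Western blot band quantification of H3K9me3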
Excerpt: (§2) GFP tag conjugated EV (GFP-EV), lamin A (GFP-LA), lamin A-C661A (GFP-LA-C661A), progerin (GFP-PG), and progerin-C611A (GFP-PG-C611A) vectors were used. GFP-PG and GFP-LA expression vectors were kindly provided by Misteli T. (National Cancer Institute [NCI], Frederick, MD, USA). GFP-LA-C661A and GFP-PG-C611A expression vectors were created by a single point mutation in CaaX motif. The CSIM sequence of lamin A, or progerin was mutated to ASIM. jetPEI (Polyplus Transfection, NY, USA) was used for transfection of expression vectors. Vectors were mixed with 1.5 μl of jetPEI in 150 mM NaCl solution. The mixture was added to HEK293 cells. After 4 h of incubation, medium was replaced with a new medium supplemented with 10% FBS.
Protein was extracted from cells using a radioimmunoprecipitation assay (RIPA) buffer (50 mM Tris-Cl, pH 7.5, 150 mM NaCl, 1% NP-40, 0.1% SDS, and 10% sodium deoxycholate). Samples were separated by sodium dodecyl sulfate-polyacrylamide gel electrophoresis (SDS-PAGE) and transferred to polyvinylidene difluoride (PVDF) membranes. Blotted membranes were blocked with 3% skimmed milk in TBS-T buffer (20 mM Tris pH 7.6, 150 mM NaCl, and 0.05% Tween 20) for 1 h followed by incubation with specific primary antibodies. Horseradish peroxidase (HRP)-conjugated goat anti-mouse, goat anti-rabbit, and mouse anti-goat IgG antibodies (Pierce, Thermo Fisher Scientific, Inc., Rockford, IL, USA) were used as secondary antibodies. Peroxidase activity was detected by chemiluminescence using an ECL kit (Intron, Seoul, Korea) following the manufacturer’s instructions. Bands were quantified using Image J software (National Institute of Health, NIH).
(§3) Fig. S1. Generation of point mutation in CaaX motif of lamin A and progerin for blocking farnesylation.
(§4) A. Sequence of expression vector encoding LA-C661A was created by single point mutation in CaaX motif.
WT-LA with CSIM sequence was mutated to ASIM. B. Sequence of expression vector encoding progerin-C611A with a single point mutation in CaaX motif. Progerin with CSIM sequence was mutated to ASIM.
C. Transient transfection of HEK293 cells with LA-C661A or PG-C611A seems to be indistinguishable from that of authentic WT-LA, or progerin. D. Measurement of proteins (GFP-LA, GFP-LA-C661A, GFP-PG, and GFP-PG-C611A) expression by counting of GFP-positive cells and western blot analysis. The blue […]
fluorescence images were randomly selected and the number of GFP expressing cells were calculated. The […]
experiment; two-tailed Student’s t-test), N.S: not significant. Quantification of western blot by Ima ge J software (National Institute of Health, NIH). […]
Quantification of GFP -tagged expression vector encoding e mpty (EV), wild-type lamin A (WT-LA), lamin A-C661A (LA-C661A), progerin, or progerin- C611A. Blots of GFP expression were quantified using Image J software. (n = 3 independent experiment; two- tailed Student’s t -test), N.S: not significant. G.
Quantification of H3K9me3 expression. […]

HEK293 cells [4] = assay: Nuclear deformation in GFP-positive HEK293 cells transfected with lamin A / progerin vectors; type: cell-based; settings: for % of deformed nuclei in GFP positive cells, Ave: average (Fig S1E); for % of deformed nuclei in GFP positive cells: single replicates (Fig S1E)
Excerpt: as §2
For nuclear deformation cell counting, immunofluorescence staining was performed with lamin A or progerin antibodies. After staining, abnormal nuclear membrane was counted in randomly selected fields and expressed as percentages or actual numbers of total cells counted. Abnormalities of nuclear membrane were determined based on the following: (1) lamin A/C or progerin lining was extruded or engulfed, (2) having at least one bleb, and (3) irregular contour. Counting of cells with nuclear deformation was performed by three independent observers who were blinded to chemical treatment group. To analyze histone H3K9me3 intensity or expression, images were quantified using “color histogram” function of Image J software (National Institute of Health, NIH). Fluorescence intensities were subtracted by background signals.
as §3, §4
WT-LA with CSIM sequence was mutated to ASIM. B. Sequence of expression vector encoding progerin-
C611A with a single point mutation in CaaX motif. Progerin with CSIM sequence was mutated to ASIM. […]
D. Measurement of proteins (GFP-LA, GFP-LA-C661A, GFP- […]
Quantification of western blot by Ima ge J
software (National Institute of Health, NIH). E. Quantification of nuclear deformation in GFP positive
HEK293 cells. At least 100 cells/sample/experiment were counted by two independent researchers. The
statistical significance was analyzed by Student’s t -test. **p < 0.001, *p < 0.05, N.S: not significant. F. […]

| Molecule | fraction unbound [1] | Plasma protein binding [2] [% Bound] | fraction unbound ([2]; human, plasma) | GFP relative expression (ratio), Ave (HEK293 cells [3]) | Relative H3K9me3 expression, Ave (HEK293 cells [3]) | GFP relative expression (ratio) (HEK293 cells [3]) | Relative H3K9me3 expression (HEK293 cells [3]) | GFP positive cells in total cells, Ave (HEK293 cells [3]) | GFP positive cells in total cells (HEK293 cells [3]) | % of deformed nuclei in GFP positive cells, Ave (HEK293 cells [4]) [%] | % of deformed nuclei in GFP positive cells (HEK293 cells [4]) | GFP relative expression in Western Blot, Ave (HEK293 cells [3]) | GFP relative expression in Western Blot (HEK293 cells [3]) |
| --- | --- | --- | --- | --- | --- | --- | --- | --- | --- | --- | --- | --- | --- |
| C[C@@H]1C[C@H]2[C@@H]3CCC4=CC(=O)C=C[C@]4(C)[C@@]3(F)[C@@H](O)C[C@]2(C)[C@@]1(O)C(=O)CO [Dexamethasone] | 0.156 | 62.1 | 0.345 | – | – | – | – | – | – | – | – | – | – |
| PG-C611A (protein, left off: GFP, end not stated, kept) METPSQRRATRSGAQASSTPLSPTRITRLQEKEDLQELNDRLAVYIDRVRSLETENAGLRLRITESEEVVSREVSGIKAAYEAELGDARKTLDSVAKERARLQLELSKVREEFKELKARNTKKEGDLIAAQARLKDLEALLNSKEAALSTALSEKRTLEGELHDLRGQVAKLEAALGEAKKQLQDEMLRRVDAENRLQTMKEELDFQKNIYSEELRETKRRHETRLVEIDNGKQREFESRLADALQELRAQHEDQVEQYKKELEKTYSAKLDNARQSAERNSNLVGAAHEELQQSRIRIDSLSAQLSQLQKQLAAKEAKLRDLEDSLARERDTSRRLLAEKEREMAEMRARMQQQLDEYQELLDIKLALDMEIHAYRKLLEGEEERLRLSPSPTSQRSRGRASSHSSQTQGGGSVTKKRKLESTESRSSFSQHARTSGRVAVEEVDEEGKFVRLRNKSNEDQSMGNWQIKRQNGDDPLLTYRFPPKFTLKAGQVVTIWAAGAGATHSPPTDLVWKAQNTWGCGNSLRTALINSTGEEVAMRKLVRSVTVVEDDEDEDGDDLLHHHHGSHCSSSGDPAEYNLRSRTVLCGTCGQPADKASASGSGAQSPQNASIM | – | – | – | 0.82 | 2.153 | 0.9957 and 0.6855 and 0.7789 | 2.22 and 2.38 and 1.86 | 0.7166 | 0.624 (2×) and 0.546 and 0.585 and 0.819 and 0.897 and 0.78 and 0.858 | 97.7143 | 95% and 100% and 96% and 98% | – | – |
| WT-LA (protein, left off: GFP, end not stated, state not stated) METPSQRRATRSGAQASSTPLSPTRITRLQEKEDLQELNDRLAVYIDRVRSLETENAGLRLRITESEEVVSREVSGIKAAYEAELGDARKTLDSVAKERARLQLELSKVREEFKELKARNTKKEGDLIAAQARLKDLEALLNSKEAALSTALSEKRTLEGELHDLRGQVAKLEAALGEAKKQLQDEMLRRVDAENRLQTMKEELDFQKNIYSEELRETKRRHETRLVEIDNGKQREFESRLADALQELRAQHEDQVEQYKKELEKTYSAKLDNARQSAERNSNLVGAAHEELQQSRIRIDSLSAQLSQLQKQLAAKEAKLRDLEDSLARERDTSRRLLAEKEREMAEMRARMQQQLDEYQELLDIKLALDMEIHAYRKLLEGEEERLRLSPSPTSQRSRGRASSHSSQTQGGGSVTKKRKLESTESRSSFSQHARTSGRVAVEEVDEEGKFVRLRNKSNEDQSMGNWQIKRQNGDDPLLTYRFPPKFTLKAGQVVTIWAAGAGATHSPPTDLVWKAQNTWGCGNSLRTALINSTGEEVAMRKLVRSVTVVEDDEDEDGDDLLHHHHGSHCSSSGDPAEYNLRSRTVLCGTCGQPADKASASGSGAQVGGPISSGSSASSVTVTRSYRSVGGSGGGSFGDNLVTRSY | – | – | – | – | – | – | – | – | – | 7 | 6% and 8% and 4% and 9% and 12% | – | – |
| LA (protein, UniProt P02545 1-661, looked up) Prelamin-A/C: METPSQRRATRSGAQASSTPLSPTRITRLQEKEDLQELNDRLAVYIDRVRSLETENAGLRLRITESEEVVSREVSGIKAAYEAELGDARKTLDSVAKERARLQLELSKVREEFKELKARNTKKEGDLIAAQARLKDLEALLNSKEAALSTALSEKRTLEGELHDLRGQVAKLEAALGEAKKQLQDEMLRRVDAENRLQTMKEELDFQKNIYSEELRETKRRHETRLVEIDNGKQREFESRLADALQELRAQHEDQVEQYKKELEKTYSAKLDNARQSAERNSNLVGAAHEELQQSRIRIDSLSAQLSQLQKQLAAKEAKLRDLEDSLARERDTSRRLLAEKEREMAEMRARMQQQLDEYQELLDIKLALDMEIHAYRKLLEGEEERLRLSPSPTSQRSRGRASSHSSQTQGGGSVTKKRKLESTESRSSFSQHARTSGRVAVEEVDEEGKFVRLRNKSNEDQSMGNWQIKRQNGDDPLLTYRFPPKFTLKAGQVVTIWAAGAGATHSPPTDLVWKAQNTWGCGNSLRTALINSTGEEVAMRKLVRSVTVVEDDEDEDGDDLLHHHHGSHCSSSGDPAEYNLRSRTVLCGTCGQPADKASASGSGAQVGGPISSGSSASSVTVTRSYRSVGGSGGGSFGDNLVTRSYLLGNSSPRTQSPQNC | – | – | – | 0.7757 | 4.873 | 0.8616 and 0.6545 and 0.811 | 5.1 and 4.62 and 4.9 | 0.7312 | 0.897 and 0.585 and 0.741 (2×) and 0.546 and 0.819 (2×) and 0.702 | – | – | 1.171 | 1.2 and 1.286 and 1.029 |
| LA-C661A (protein, UniProt P02545 1-661, looked up, variant C661A) Prelamin-A/C: METPSQRRATRSGAQASSTPLSPTRITRLQEKEDLQELNDRLAVYIDRVRSLETENAGLRLRITESEEVVSREVSGIKAAYEAELGDARKTLDSVAKERARLQLELSKVREEFKELKARNTKKEGDLIAAQARLKDLEALLNSKEAALSTALSEKRTLEGELHDLRGQVAKLEAALGEAKKQLQDEMLRRVDAENRLQTMKEELDFQKNIYSEELRETKRRHETRLVEIDNGKQREFESRLADALQELRAQHEDQVEQYKKELEKTYSAKLDNARQSAERNSNLVGAAHEELQQSRIRIDSLSAQLSQLQKQLAAKEAKLRDLEDSLARERDTSRRLLAEKEREMAEMRARMQQQLDEYQELLDIKLALDMEIHAYRKLLEGEEERLRLSPSPTSQRSRGRASSHSSQTQGGGSVTKKRKLESTESRSSFSQHARTSGRVAVEEVDEEGKFVRLRNKSNEDQSMGNWQIKRQNGDDPLLTYRFPPKFTLKAGQVVTIWAAGAGATHSPPTDLVWKAQNTWGCGNSLRTALINSTGEEVAMRKLVRSVTVVEDDEDEDGDDLLHHHHGSHCSSSGDPAEYNLRSRTVLCGTCGQPADKASASGSGAQVGGPISSGSSASSVTVTRSYRSVGGSGGGSFGDNLVTRSYLLGNSSPRTQSPQNA | – | – | – | 0.7753 | 4.563 | 0.9644 and 0.614 and 0.7475 | 5.03 and 4.5 and 4.16 | 0.7264 | 0.819 and 0.936 and 0.741 (2×) and 0.546 and 0.585 and 0.78 and 0.663 | 7.286 | 8% and 6% and 10% and 5% and 9% | 1.219 | 1.3 and 1.171 and 1.186 |
